# Data published in the nanobody polyreactivity screen of Harvey et al. (2022).
# Test: yeast display, Sf9 membrane polyspecificity reagent, FACS + sequencing; frameworks hold sequencing errors
# How it was run: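 Synthetic nanobody libraries on Saccharomyces cerevisiae BJ5465 were galactose-induced for 36–48 hours, stained 1 hour at 4 °C with 10% biotinylated, detergent-solubilized Sf9 membrane reagent and enriched on streptavidin microbeads. FACS then separated cells into low and high (top ~1%) gates by anti-HA (expression) and streptavidin (reagent binding) fluorescence. Genes were colony-PCR amplified, MiSeq 2 × 250 sequenced and CDR-length filtered. A clone's polyreactivity label is that of its gate of origin.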
row,Sequence,polyreactivity (PSR sort gate)
1,QVQLVESGGGLVQAGGSLRLSCAASGITFSKYAMGWFRHAPGKERELFASITWSGTSTYYADSVKGRFTISRDNAKNTVYLQMKSLKPEDTAVYYCAADGWGTFWRAQNGYGYEHDYWGKGTQVTVSS,low polyreactivity
2,QVQLVESGGGLVQAGGSLRLSCAASGGIFSYYAMGWYRQAPGKEREFVAAIDWGGGSTYYADSVKGRFTISRDNAKKTVYLQMNSLKPEDTAVYYCAAEIYPIGWDDYDYWGQGTQVTVSS,low polyreactivity
3,QVQLVESGGGLVQAGGSLRLSCAASGSIFGGYGMGSYRQAPGKERELVAAITSGSSTYYADSVKGRFTISRDNAKNTVYLQMNSLKPEDTAVYYCAARPYPHSAYEGDYWGRGTQVTVSS,low polyreactivity
4,QVQLVESGGGLVQAGGSLRLSCAASGFIFGTYAMGWYRQAPGKEREFVAAITTSGSSTRYADSVKGRFTISRDNAKNTVYLQMNSLKPEDTAVYYCAARNRTFFQPTYYYWGQGTQVTVSS,high polyreactivity
5,QVQLVESRGGLVQAGGSLRLSCAASGSIFGANAMGWYRQEPGKEMELVAAISTRGGRTYYADSVKGRFTISRDNAKNTVYLQMISLKPEDTAVYYCATSGGRPYTYEYWGQGTQVTVSS,high polyreactivity
6,QVQLVDSGGGLVQAGGSLRLSCAASGRTFRYYAMGWYRQAPGKERELVATITGSGGSTYYADSVKGRFTISRDNAKNTVYLQLISLKPEDTAVYYCNARKVRYPYRWYDYWGQGTQVTVSS,high polyreactivity
7,QVQLVESGGGLVQAGGSLRLSCAASGSIFYIYAMGWYRQAPGKERELVAGINGGGASTYYADSVKGRFTISRDNAKNTVYLQMNSLKPEDTAVYYCAADIRYLGEYWGQGTQVTVSS,low polyreactivity
8,QVQLVESGGGLVQAGGSLRLRCAASGRIFYSNTMGWYRQAPGKERELVADITSGGSTKYADSVKGRFTISRDNAKNTVYLQMISLKPEDTAVYYCAAGERYDWWYGGFQGYDYWGQGTQVTVSS,high polyreactivity
9,QVQLVESVGGLVQAGGSLRLICACSGLNFVSYAMGWYRQAPGKERELVAAINSRGSRTYYADSVKGRLTISRDNAKNTVYLQMNSLKPEDTALYYCAAGVIRYGGKEEYYYWGQGTQVTVSS,high polyreactivity
10,QVQLVESGGGLVQAGGSLRLSCAASGRIFVVYAMGWYRQAPGKERELVAAITRSGGRTFYAASVKGRFTISRDNATNTVYLQMYSQKPEDTAVYYCNKVDRFYLRLVYWGQGTQVTVAS,high polyreactivity
11,QVQLVESGGGLVQAGGSLRLSCAASGFTFGRYAMGWYRQAPGKVRELVAGITSGGSTYYADSVKGRFTISRDNAKKTVYLQMNSLKPEDTAVYYGAKASAYGLANDYDYWGQGTQVTVSS,low polyreactivity
12,QVQLVESGGGLVQAGGSLRLSCAASGSTFNSYARGWYRQAPGTERELVAAITSSVGSTYYADSVKGRFTISRDNAKNTVYLQMNSLKPEDTAVYYCDRDYFNREAFDYWGQGTQVTVSS,low polyreactivity
13,QVQLVESGRRLVQAGGSLRLSCAASGRTFGFYAMGWYRQAPGKERELVAGITWSGGSTYYADSVKGRFTISRDNAKNTVYLQMNSLKPEDTAVYYCAADVWWYHYLLFDSWGQGTQVTVSS,low polyreactivity
14,QVQLVESGGGLVKAGGSLRLSRAASGSIFPRYAMGWNRQAPGKERELVAAITSSAASTYYADSVKGRFTISRDNAKNTVYLQMNSLKPEDSAVYYCAASGPWSYWYYYWGQGTQVTVSS,low polyreactivity
15,QVQLEESGGGLVQAGGSLRLSCAASGRIFYQNAMGWYRQAPGKERQLVADIASGGSTSYADSVKGRFTISRDNAKNTVYIQMNSLKPEDTAVYYCATAVLYGDGWYYYWGQGTQVTVSS,low polyreactivity
16,QVQLVESGGGLVLAGGSLRLSCAASGRTFVQYAMGWYRQAPGTERELVAAISDRGGNTYYADSVKGRFTISRDNAKNTVYLQMNSLKPDDTAVYYCAAKIALDNDYWGQGTQVTVSS,high polyreactivity
17,QVQLVESGGGLVQAGGSLRLTCAASGSIFTAYTMGWYRQAPGKERDLVAAITERGGSTYYADSVKGRFTISRDNAKNTVYLQMNRMKPEDSAVYYCAASTLKDIYLWFRVDYWGQGTHVTVSS,low polyreactivity
18,QVQLVDSGGGLVQAGGSLRLSCASSGNTFAGNARGWYRQAPGTERELVAAISRSGVTTRYADSVKGRFTISRDNAKNTVYLQMNSLKQEDTAVYYCNADPRLRQTRDYWGHGTQVTVSS,high polyreactivity
19,QVQLVESGGGLVQSGGTLRLSWAASGFSFAGNAMGWYRLAPGKERELVAVISKRGGPTYYADSVKGRFTFSRDNAKNTVDLQMNSLKPEDTAVYYCAADSGGPGYAMDYWGQGTEVTVSS,high polyreactivity
20,QVQLVESGGGLVQAGGSLRLSCAASGFTFGYYAMGWYRQAPGKERELVARISDGGSTNYADSVKGRFTISRDNAKNTVYLQMNSLKQEDTAVYYCAADDTRGREEYDYWGQGTQVTVSS,high polyreactivity
21,QVQLVESGGGLVQAGGILRLSCAASGSTLGKNAMGWYRQAPGKERELVAAISYSGGSTYYADSVKGRFTISRDNAKNTVYLQMNSLKPEDTAVYYCAAQRRYHYWGQGTQVTVSS,low polyreactivity
22,QVQLVESGGGLVQAGGSLRLSCAASGRIFDLNVMGWYRQAPGKERELVAAIRSGGRTNYADSVKGRFTISRDNAKNTVYLQMNSLKPEDTAVYYCNVRRGYWHPGYGWANYDYWGQGTQVTVSS,high polyreactivity

row,Sequence,polyreactivity (PSR sort gate)
1,QVQLVESGGGLVQAGGSLRLRCAASGSTFRANAMGWYRQAPGKERELVAAISWSGGRTYYADSVKGRFTISRDNAKNTVYLQMNSLKPEDTAVYYCAAPKLTSYDSWGQGTQVTVSS,high polyreactivity
2,QVQVVESGGGLVKAGGSLSLSCDASGITFVAYAMGWYRQAPGKERELVAAISYNGGSTNYADSVKGRFTISRDNAMNTVYLQINSLKPEDTAVFYCAADLADFYPRFNYWGQGTQVTVSS,low polyreactivity
3,QVQHVESGGGLVQAGGSLRLSCAASGIIFHSYAMGWYRQAPGKERELVAAISKNVVSTYYADSVKGRFTISRDNAKNTVYLQMNSLKPEDTAVYYCATLKPYRARQRDYWGQGTQVTVSS,high polyreactivity
4,QVQLVESGGGLVQAGGSLRLSCAASGPTNAMGWYRQAPGKERELVAAITKSGGSTYYADSVKGRFTISRDNAKNTVYLQMNSLKPEDTAVYYCALILRHTAYYYWGQGTQVTVSS,high polyreactivity
5,QVQLVESGGGLVQAGGSLRLSCAASGSTIYLYAMGWYRQAPGKERELVAAIRGRGGRTYYADSVKGRFTISRDNAKNTVYLQMNSLKPEDTAVDYCNADVYAYYRATTRFDYWGQGTQVTVSS,high polyreactivity
6,QVQLVESGGGLVQAGGSLRLSCAASGRIFYYYAMGWYRQAPGKERELVAAINRSGGSTYYADSVKGRFTISRDNAKNTVYLQKNSLKPEDTAVYYCASYDYWGQGSQVTVSS,high polyreactivity
7,QVHHVESGGVLVKAGGSLRLSCAASGRTIYAYAMGWYRQAPGQESELVAAITSGASTYYADSVKGRFTISRDNAKNTVYLQMNSLKPEDTGVYYCAKRVRYYKPGYDYWGLGTQVTVSS,low polyreactivity
8,QVQIVESGGGLVQAGGSLRLSCAACGRIFTWNVMGWYRQAPGKEREFVAAITYSGGRTRYADSVKGRFTISRDIAKNTVYLQMNSLKPEDTAFYYCAATSRGTDYWGQGTQVTVSS,high polyreactivity
9,QVQLVESGGGLVQAGGSLRLSCAASGSTFYHYAMGWYRQAPGKERELVASISHSGGRTFYADSVKGRFTISRDNAKNTVYLQMNSLKPEDTAVYYCAADWRTLTEYGYKGYYWGLGTQVTVSS,low polyreactivity
10,QVQLVESGGGLVQAGGSLRLSCAASGSTFGRNAMGWYRQSPGKERELVAAISSRGGGTYYADSVKGRFTISRDNAKNSVYLQMNSLKPEDTAVYYCAADYVYGYYPKYTYKPSGYWGQGTQVTVTS,high polyreactivity
11,QGQLVESGGGLVQAGGRLRLSCAASGRIFPNNAMGWYRQAPGKERELVAAISRSGGRTYYADSVKGRFTISRDNAKNTVYLQMNSLKPEDTAVYYCAARSWGGYDSRGYWGQGTQVTVSS,high polyreactivity
12,QVQLVESGGGLVQAGGSLRLSCAASGNIFTSNAMGWYRQAPGKERELVAAITSGGSTYYADSLKGRFTISRDNAKNTVYLQMISLKPEDTAVYYCATLRRPHLRPYYYWGQGTQVTVSS,high polyreactivity
13,QVQLVESGGGLVQAGGSLRLSCAASGRTYYNNAMGWYRQAPGKEREFVAAISASGGRTRYADSVKGRFTISRDNAKNTVYLQMNSLKPEDTAVYYCAAAGTSTLYWGQGTQVTVSS,high polyreactivity
14,QVQLVESGGGLVQAGGSLRFSCAASGRPFPYYVMGWYRQAPGKERELVAAINSGGRTNYADSVKGRFTISRDNAKNTVYLQMNSLKPEDTAVYYCTKRGHPARLGYYYWGQGTQVNVSS,low polyreactivity
15,QVQLVESGGGLVQAGGSLRLSCAASGYIFKYYVMGWYIQAPGKERELVAGISSTGGTTYYADSVKGRFTISRDNAKNTVYLQMNSLKPEDSAVYYFAADRVYEASQGYTYFDYDYWGQGTQVTVSS,low polyreactivity
16,QVQLVESGGGLVQAGGSLRLSCAASGNIFGFYTMGWYRQAPGKERELVAAIRSRGGSTNYADSVKGRFTISRDNAKNTVYLQMNSLTPEDTAVYYCNKDGTWLARAVTYADFDYWGQGTQVTVSS,low polyreactivity
17,QVQLVESGGGLVQAGGSLRLSCAASGSTFVIYAMGWYRQAPGKERELVAAITFSGGRTYYADSVKGRFTISRDNAKNTVYLQMNSLKPEDTAVYYCNARHRNLAEYDYWGQGTQVTVSS,low polyreactivity
18,QVQLVESGGGLVQAGGSLRLSCAASGFTFSQYAAMGWYRQAPGKERELVAAINISGSTNYADSVKGRFTISRDNAKNTVYLQMNSLKPEDTAVYYCNADVAPGIFYGYDSWGQGTQVTVSS,low polyreactivity
19,QVQLVESGGGLVQAGGSLRLSCAASGRTFYVNAMGWYRQAPGKERELVASITSGGSTYYADSVKGRFTISRDNAKNTVSLQMNSLKPEDTAVYYCAAGSKDLYRPYDYWGQGTQLTVSS,high polyreactivity
20,QVQLVESGGGLVQAGGSLRLSCAASGSTYGYYTMGWYRQAPGKERELVAAITWSGGSTYYADSVKGRFTISRDIAKNTVYLQMNSLKPEDTAVYYCAADDYWTPFGYWGQCTQVTVSS,low polyreactivity
21,QVQLVESGGGLVQAGGSLRLSCAASGSIFGRYTMGWYRQAPGKERELVAAISSSGGRTYYADSVKGRFTISRDNAKNTVYLQMNSLKPEDTAVYYCNKGYGYEYYWGQGTQVTVSS,low polyreactivity
